Source: article PMC2832003
Each block holds one binder with its values, some of them ahead of it.

Columns and labels:
[1] = biological target: T1, activin type IIB receptor (ActRIIB), coated on ELISA plates, Q13705
[2] = biological target: T1, activin type IIB receptor (ActRIIB), …; assay: ELISA; competition: quantified conditioned media compete with biotinylated inhibin A for ActRIIB coated on the plate
[3] = biological target: T1, activin type IIB receptor (ActRIIB), …; assay: ELISA; 50 ng ActRIIB dried in each well (20 mM HEPES pH 7.4); biotinylated inhibin A or activin A in TBST pH 7.4, 1.5 h, room temperature; streptavidin-HRP; standard binding curve
[4] = biological target: T1, activin type IIB receptor (ActRIIB), …; assay: ELISA; competition: quantified conditioned media compete with biotinylated activin A for ActRIIB coated on the plate

B1: α^HPWR−/βA mutant inhibin A, P05111 233-366; P08476 311-426 (complex)
chain 1: STPLMSWPWSPSALRLLQRPPEEPAAHANCHRVALNISFQELGWERWIVYPPSFIFHYCHGGCGLHIYSLLPGAQPCCAALPGTMRPLHVRTTSDGGYSFKYETVPNLLTQHCACI
chain 2: GLECDGKVNICCKKQFFVSFKDIGWNDWIIAPSGYHANYCEGECPSHIAGTSGSSLSFHSTVINHYRMRGHSPFANLKSCCVPTKLRPMSMLYYDDGQNIIKKDIQNMIVEECGCS
IC50 of antagonism of activin A (0.4 nM) in the FSHβ-luciferase assay in LβT2 cells, with transfected betaglycan [1]: 0.27 nM
IC50 of antagonism of activin A (0.4 nM) in the FSHβ-luciferase assay in LβT2 cells, without betaglycan [1]: 0.31 nM
IC50 [2]: 2.96 nM

B3: α^Hext−/βA mutant inhibin A, P05111 233-366; P08476 311-426 (complex)
chain 1: STPLMANCHRVALNISFQELGWERWIVYPPSFIFHYCHGGCGLHIPPNLSLPVPGAPPTPAQPYSLLPGAQPCCAALPGTMRPLHVRTTSDGGYSFKYETVPNLLTQHCACI
chain 2: GLECDGKVNICCKKQFFVSFKDIGWNDWIIAPSGYHANYCEGECPSHIAGTSGSSLSFHSTVINHYRMRGHSPFANLKSCCVPTKLRPMSMLYYDDGQNIIKKDIQNMIVEECGCS
modifications: here or on the partner: disulfide-linked heterodimer; alpha-subunit N-glycosylated (CHO-expressed)
IC50 [2]: 128 nM

B5: biotinylated human activin A, P08476 311-426 (complex)
chain: GLECDGKVNICCKKQFFVSFKDIGWNDWIIAPSGYHANYCEGECPSHIAGTSGSSLSFHSTVINHYRMRGHSPFANLKSCCVPTKLRPMSMLYYDDGQNIIKKDIQNMIVEECGCS
modifications: here or on the partner: biotin (EZ-link Micro Sulfo-NHS-LC-biotinylation Kit), sites not stated
EC50 [3]: 1.1 nM

B6: biotinylated human inhibin A, P05111 233-366; P08476 311-426 (complex)
chain 1: STPLMSWPWSPSALRLLQRPPEEPAAHANCHRVALNISFQELGWERWIVYPPSFIFHYCHGGCGLHIPPNLSLPVPGAPPTPAQPYSLLPGAQPCCAALPGTMRPLHVRTTSDGGYSFKYETVPNLLTQHCACI
chain 2: GLECDGKVNICCKKQFFVSFKDIGWNDWIIAPSGYHANYCEGECPSHIAGTSGSSLSFHSTVINHYRMRGHSPFANLKSCCVPTKLRPMSMLYYDDGQNIIKKDIQNMIVEECGCS
modifications: here or on the partner: biotin (EZ-link Micro Sulfo-NHS-LC-biotinylation Kit), sites not stated | biotin (EZ-link Micro Sulfo-NHS-LC-biotinylation Kit), sites not stated
EC50 [3]: 2.73 nM

B7: wild type human activin A (βA/βA dimer), P08476 311-426 (complex)
chain: GLECDGKVNICCKKQFFVSFKDIGWNDWIIAPSGYHANYCEGECPSHIAGTSGSSLSFHSTVINHYRMRGHSPFANLKSCCVPTKLRPMSMLYYDDGQNIIKKDIQNMIVEECGCS
IC50 [4]: 4.14 nM

The next lines start with the values.

IC50 [2]: 5.55 nM
B2: wild type chicken inhibin A (α^Chwt/βA), P43031 217-329; P08476 311-426 (complex)
chain 1: SAVPWSPAALSLLQRPSEDVAAHTNCRRASLNISFEELGWDNWIVHPSSFVFHYCHGNCAEGHGLSHRLGVQLCCAALPGTMRSLRVRTTSDGGYSFKYETVPNILAQDCTCV
chain 2: GLECDGKVNICCKKQFFVSFKDIGWNDWIIAPSGYHANYCEGECPSHIAGTSGSSLSFHSTVINHYRMRGHSPFANLKSCCVPTKLRPMSMLYYDDGQNIIKKDIQNMIVEECGCS

IC50 [2]: 9.01 nM
B4: wild type human inhibin A (α^Hwt/βA), P05111 233-366; P08476 311-426 (complex)
chain 1: STPLMSWPWSPSALRLLQRPPEEPAAHANCHRVALNISFQELGWERWIVYPPSFIFHYCHGGCGLHIPPNLSLPVPGAPPTPAQPYSLLPGAQPCCAALPGTMRPLHVRTTSDGGYSFKYETVPNLLTQHCACI
chain 2: GLECDGKVNICCKKQFFVSFKDIGWNDWIIAPSGYHANYCEGECPSHIAGTSGSSLSFHSTVINHYRMRGHSPFANLKSCCVPTKLRPMSMLYYDDGQNIIKKDIQNMIVEECGCS
